Assay results as given in publication doi:10.1101/302299.

Tests used:
AtERF96 WT [1] = molecular target: T1, AtERF96 WT (Arabidopsis thaliana, UniProt Q9LSX0 1-131); experiment: X-ray crystallography
AtERF96 WT [2] = molecular target: T1, AtERF96 WT; experiment: EMSA

T1 sequence (Q9LSX0 whole entry): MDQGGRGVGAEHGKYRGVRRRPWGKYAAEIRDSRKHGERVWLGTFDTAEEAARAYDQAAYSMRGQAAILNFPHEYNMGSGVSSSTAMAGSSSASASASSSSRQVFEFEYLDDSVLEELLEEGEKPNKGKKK

B1: GCC11 (crystal) (dsDNA)
DNA 1: TAGCCGCCAGC
DNA 2: GCTGGCGGCTA
AtERF96 WT [1]
  binding result: binds

B2: GCC11 probe (dsDNA)
DNA 1: TAGCCGCCAGC
DNA 2: GCTGGCGGCTA
AtERF96 WT [2]
  binding result: binds
